B1: 3xFlag-EGFP-ALFY [human] / GST-CTLA4 (201–215) [human] (parent complex)
chain 1: MNMVKRIMGRPRQEECSPQDNALGLMHLRRLFTELCHPPRHMTQKEQEEKLYMMLPVFNRVFGNAPPNTMTEKFSDLLQFTTQVSRLMVTEIRRRASNKSTEAASRAIVQFLEINQSEEASRGWMLLTTINLLASSGQKTVDCMTTMSVPSTLVKCLYLFFDLPHVPEAVGGAQNELPLAERRGLLQKVFVQILVKLCSFVSPAEELAQKDDLQLLFSAITSWCPPYNLPWRKSAGEVLMTISRHGLSVNVVKYIHEKECLSTCVQNMQQSDDLSPLEIVEMFAGLSCFLKDSSDVSQTLLDDFRIWQGYNFLCDLLLRLEQAKEAESKDALKDLVNLITSLTTYGVSELKPAGITTGAPFLLPGFAVPQPAGKGHSVRNVQAFAVLQNAFLKAKTSFLAQIILDAITNIYMADNANYFILESQHTLSQFAEKISKLPEVQNKYFEMLEFVVFSLNYIPCKELISVSILLKSSSSYHCSIIAMKTLLKFTRHDYIFKDVFREVGLLEVMVNLLHKYAALLKDPTQALNEQGDSRNNSSVEDQKHLALLVMETLTVLLQGSNTNAGIFREFGGARCAHNIVKYPQCRQHALMTIQQLVLSPNGDDDMGTLLGLMHSAPPTELQLKTDILRALLSVLRESHRSRTVFRKVGGFVYITSLLVAMERSLSCPPKNGWEKVNQNQVFELLHTVFCTLTAAMRYEPANSHFFKTEIQYEKLADAVRFLGCFSDLRKISAMNVFPSNTQPFQRLLEEDVISIESVSPTLRHCSKLFIYLYKVATDSFDSRAEQIPPCLTSESSLPSPWGTPALSRKRHAYHSVSTPPVYPPKNVADLKLHVTTSSLQSSDAVIIHPGAMLAMLDLLASVGSVTQPEHALDLQLAVANILQSLVHTERNQQVMCEAGLHARLLQRCSAALADEDHSLHPPLQRMFERLASQALEPMVLREFLRLASPLNCGAWDKKLLKQYRVHKPSSLSYEPEMRSSMITSLEGLGTDNVFSLHEDNHYRISKSLVKSAEGSTVPLTRVKCLVSMTTPHDIRLHGSSVTPAFVEFDTSLEGFGCLFLPSLAPHNAPTNNTVTTGLIDGAVVSGIGSGERFFPPPSGLSYSSWFCIEHFSSPPNNHPVRLLTVVRRANSSEQHYVCLAIVLSAKDRSLIVSTKEELLQNYVDDFSEESSFYEILPCCARFRCGELIIEGQWHHLVLVMSKGMLKNSTAALYIDGQLVNTVKLHYVHSTPGGSGSANPPVVSTVYAYIGTPPAQRQIASLVWRLGPTHFLEEVLPSSNVTTIYELGPNYVGSFQAVCMPCKDAKSEGVVPSPVSLVPEEKVSFGLYALSVSSLTVARIRKVYNKLDSKAIAKQLGISSHENATPVKLIHNSAGHLNGSARTIGAALIGYLGVRTFVPKPVATTLQYVGGAAAILGLVAMASDVEGLYAAVKALVCVVKSNPLASKEMERIKGYQLLAMLLKKKRSLLNSHILHLTFSLVGTVDSGHETSIIPNSTAFQDLLCDFEVWLHAPYELHLSLFEHFIELLTESSEASKNAKLMREFQLIPKLLLTLRDMSLSQPTIAAISNVLSFLLQGFPSSNDLLRFGQFISSTLPTFAVCEKFVVMEINNEEKLDTGTEEEFGGLVSANLILLRNRLLDILLKLIYTSKEKTSINLQACEELVKTLGFDWIMMFMEEHLHSTTVTAAMRILVVLLSNQSILIKFKEGLSGGGWLEQTDSVLTNKIGTVLGFNVGRSAGGRSTVREINRDACHFPGFPVLQSFLPKHTNVPALYFLLMALFLQQPVSELPENLQVSVPVISCRSKQGCQFDLDSIWTFIFGVPASSGTVVSSIHNVCTEAVFLLLGMLRSMLTSPWQSEEEGSWLREYPVTLMQFFRYLYHNVPDLASMWMSPDFLCALAATVFPFNIRPYSEMVTDLDDEVGSPAEEFKAFAADTGMNRSQSEYCNVGTKTYLTNHPAKKFVFDFMRVLIIDNLCLTPASKQTPLIDLLLEASPERSTRTQQKEFQTYILDSVMDHLLAADVLLGEDASLPITSGGSYQVLVNNVFYFTQRVVDKLWQGMFNKESKLLIDFIIQLIAQSKRRSQGLSLDAVYHCLNRTILYQFSRAHKTVPQQVALLDSLRVLTVNRNLILGPGNHDQEFISCLAHCLINLHVGSNVDGFGLEAEARMTTWHIMIPSDIEPDGSYSQDISEGRQLLIKAVNRVWTELIHSKKQVLEELFKVTLPVNERGHVDIATARPLIEEAALKCWQNHLAHEKKCISRGEALAPTTQSKLSRVSSGFGLSKLTGSRRNRKESGLNKHSLSTQEISQWMFTHIAVVRDLVDTQYKEYQERQQNALKYVTEEWCQIECELLRERGLWGPPIGSHLDKWMLEMTEGPCRMRKKMVRNDMFYNHYPYVPETEQETNVASEIPSKQPETPDDIPQKKPARYRRAVSYDSKEYYMRLASGNPAIVQDAIVESSEGEAAQQEPEHGEDTIAKVKGLVKPPLKRSRSAPDGGDEENQEQLQDQIAEGSSIEEEEKTDNATLLRLLEEGEKIQHMYRCARVQGLDTSEGLLLFGKEHFYVIDGFTMTATREIRDIETLPPNMHEPIIPRGARQGPSQLKRTCSIFAYEDIKEVHKRRYLLQPIAVEVFSGDGRNYLLAFQKGIRNKVYQRFLAVVPSLTDSSESVSGQRPNTSVEQGSGLLSTLVGEKSVTQRWERGEISNFQYLMHLNTLAGRSYNDLMQYPVFPWILADYDSEEVDLTNPKTFRNLAKPMGAQTDERLAQYKKRYKDWEDPNGETPAYHYGTHYSSAMIVASYLVRMEPFTQIFLRLQGGHFDLADRMFHSVREAWYSASKHNMADVKELIPEFFYLPEFLFNSNNFDLGCKQNGTKLGDVILPPWAKGDPREFIRVHREALECDYVSAHLHEWIDLIFGYKQQGPAAVEAVNVFHHLFYEGQVDIYNINDPLKETATIGFINNFGQIPKQLFKKPHPPKRVRSRLNGDNAGISVLPGSTSDKIFFHHLDNLRPSLTPVKELKEPVGQIVCTDKGILAVEQNKVLIPPTWNKTFAWGYADLSCRLGTYESDKAMTVYECLSEWGQILCAICPNPKLVITGGTSTVVCVWEMGTSKEKAKTVTLKQALLGHTDTVTCATASLAYHIIVSGSRDRTCIIWDLNKLSFLTQLRGHRAPVSALCINELTGDIVSCAGTYIHVWSINGNPIVSVNTFTGRSQQIICCCMSEMNEWDTQNVIVTGHSDGVVRFWRMEFLQVPETPAPEPAEVLEMQEDCPEAQIGQEAQDEDSSDSEADEQSISQDPKDTPSQPSSTSHRPRAASCRATAAWCTDSGSDDSRRWSDQLSLDEKDGFIFVNYSEGQTRAHLQGPLSHPHPNPIEVRNYSRLKPGYRWERQLVFRSKLTMHTAFDRKDNAHPAEVTALGISKDHSRILVGDSRGRVFSWSVSDQPGRSAADHWVKDEGGDSCSGCSVRFSLTERRHHCRNCGQLFCQKCSRFQSEIKRLKISSPVRVCQNCYYNLQHERGSEDGPRNC
chain 2: YVKMPPTEPECEKQF

Variants of: B1
Test: GST pulldown, anti-flag western blot quantification; HeLa 3xFlag-EGFP-ALFY cell lysate; three independent experiments; read off a plot

| Variant | response |
| --- | --- |
| chain 2 E12A | ~1.2 |
| chain 2 C11A | ~0.78 |
| chain 2 K3A | ~0.55 |
| chain 2 F15A | ~1.1 |
| chain 2 M4A | ~1.6 |
| chain 2 P5A | ~0.87 |
| chain 2 E10A | ~1.2 |
| chain 2 E8A | ~1.4 |
| chain 2 K13A | ~0.5 |
| chain 2 P6A | ~0.67 |

Second part, the variant after the results:

| response | Variant |
| --- | --- |
| ~0.68 | chain 2 Q14A |
| ~1.4 | chain 2 Y1A |
| ~1.5 | chain 2 T7A |
| ~0.77 | chain 2 P9A |
| ~1.7 | chain 2 V2A |

From paper PMC11554844, “BEACH domain proteins function as cargo-sorting adaptors in secretory and endocytic pathways” (The Journal of Cell Biology, 2024)
